T1: pN-TALER IV-5-EE2 (synthetic)
T1 chain: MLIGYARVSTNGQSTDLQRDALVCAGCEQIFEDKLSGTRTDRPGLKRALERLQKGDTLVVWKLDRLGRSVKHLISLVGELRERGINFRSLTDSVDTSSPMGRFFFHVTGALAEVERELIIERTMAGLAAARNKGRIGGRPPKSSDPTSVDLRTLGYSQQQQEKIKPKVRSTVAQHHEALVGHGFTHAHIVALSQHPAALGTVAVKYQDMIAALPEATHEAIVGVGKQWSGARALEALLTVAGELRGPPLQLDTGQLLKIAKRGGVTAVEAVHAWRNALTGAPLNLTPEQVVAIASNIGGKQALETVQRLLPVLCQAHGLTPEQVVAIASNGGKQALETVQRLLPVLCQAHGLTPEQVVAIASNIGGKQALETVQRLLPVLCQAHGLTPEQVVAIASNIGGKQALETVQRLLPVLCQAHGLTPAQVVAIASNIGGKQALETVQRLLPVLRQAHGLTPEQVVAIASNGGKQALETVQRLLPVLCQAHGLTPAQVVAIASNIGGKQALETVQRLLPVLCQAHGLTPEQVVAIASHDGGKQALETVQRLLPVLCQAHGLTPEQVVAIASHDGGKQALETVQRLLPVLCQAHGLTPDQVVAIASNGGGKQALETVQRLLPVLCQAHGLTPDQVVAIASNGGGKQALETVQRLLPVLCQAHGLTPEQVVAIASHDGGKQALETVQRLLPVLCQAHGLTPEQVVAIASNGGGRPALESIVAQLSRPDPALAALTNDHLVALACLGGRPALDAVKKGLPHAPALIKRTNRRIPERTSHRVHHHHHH

T2: sN-TALER IV-5 (synthetic)
T2 chain: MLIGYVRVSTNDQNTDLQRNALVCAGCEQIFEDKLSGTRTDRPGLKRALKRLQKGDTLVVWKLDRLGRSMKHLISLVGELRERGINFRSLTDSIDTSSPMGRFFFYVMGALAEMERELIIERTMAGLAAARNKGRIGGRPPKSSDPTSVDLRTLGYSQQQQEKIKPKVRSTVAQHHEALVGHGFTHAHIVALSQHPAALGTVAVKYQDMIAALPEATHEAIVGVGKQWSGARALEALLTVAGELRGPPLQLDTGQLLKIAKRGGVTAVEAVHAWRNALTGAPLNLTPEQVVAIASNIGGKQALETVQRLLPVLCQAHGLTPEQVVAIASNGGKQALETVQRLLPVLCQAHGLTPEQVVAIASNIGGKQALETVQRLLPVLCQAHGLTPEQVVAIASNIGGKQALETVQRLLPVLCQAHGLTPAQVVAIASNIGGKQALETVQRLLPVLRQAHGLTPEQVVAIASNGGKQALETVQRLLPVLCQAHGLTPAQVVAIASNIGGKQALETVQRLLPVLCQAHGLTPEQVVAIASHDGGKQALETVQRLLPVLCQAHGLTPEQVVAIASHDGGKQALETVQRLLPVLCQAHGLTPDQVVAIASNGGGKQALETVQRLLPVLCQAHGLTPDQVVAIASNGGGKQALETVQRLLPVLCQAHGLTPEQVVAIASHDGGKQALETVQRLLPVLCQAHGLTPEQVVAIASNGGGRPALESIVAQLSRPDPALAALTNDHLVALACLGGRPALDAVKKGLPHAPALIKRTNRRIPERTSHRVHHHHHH

T3: sN-TALER IIb-1 (synthetic)
T3 chain: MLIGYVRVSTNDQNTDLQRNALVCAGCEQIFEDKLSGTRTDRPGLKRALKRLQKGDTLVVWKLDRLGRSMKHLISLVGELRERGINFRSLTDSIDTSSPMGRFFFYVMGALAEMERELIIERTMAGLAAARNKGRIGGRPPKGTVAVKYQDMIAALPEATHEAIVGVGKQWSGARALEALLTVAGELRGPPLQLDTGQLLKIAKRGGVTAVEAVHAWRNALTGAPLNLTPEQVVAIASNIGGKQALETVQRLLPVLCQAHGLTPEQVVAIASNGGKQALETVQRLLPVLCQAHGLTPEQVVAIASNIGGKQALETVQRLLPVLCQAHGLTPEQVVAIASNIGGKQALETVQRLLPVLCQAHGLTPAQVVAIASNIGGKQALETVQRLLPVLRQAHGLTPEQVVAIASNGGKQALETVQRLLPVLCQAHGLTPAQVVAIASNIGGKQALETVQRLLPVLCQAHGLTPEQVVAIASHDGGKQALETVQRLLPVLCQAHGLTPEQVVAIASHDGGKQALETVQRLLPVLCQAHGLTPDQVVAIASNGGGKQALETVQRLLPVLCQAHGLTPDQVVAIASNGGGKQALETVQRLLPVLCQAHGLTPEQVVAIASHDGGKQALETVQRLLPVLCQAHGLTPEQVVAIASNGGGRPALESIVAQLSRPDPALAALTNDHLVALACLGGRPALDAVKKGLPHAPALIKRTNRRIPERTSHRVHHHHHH


Experiments:
Test in all cases: cell_activity; E. coli
Details in all cases: tags: 6-His
pN-TALER IV-5-EE2 = molecular target: T1, pN-TALER IV-5-EE2
sN-TALER IV-5 = molecular target: T2, sN-TALER IV-5
How it was run: (§1)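 DH5alpha cells co-transformed (heat shock or electroporation) with N-TALER expression and reporter plasmids at ~1:1 mass ratio; reporter alone as control. Plated on chloramphenicol/kanamycin/X-gal, grown 37° C. for 18 to 36 hours; recombination scored by colony colour.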

sN-TALER IIb-1 = molecular target: T3, sN-TALER IIb-1
How it was run: as §1

| Binder | activity (pN-TALER IV-5-EE2) | activity (sN-TALER IV-5) | activity (sN-TALER IIb-1) |
| --- | --- | --- | --- |
| Gin20TALE+0 (dsDNA) DNA 1: AGAAGGTATTTATATCCAAAACCATGGTTTACAGTATAAATACCTTCT DNA 2: AGAAGGTATTTATACTGTAAACCATGGTTTTGGATATAAATACCTTCT | 1 score | 4.5 score | – |
| Gin18TALE+0 (dsDNA) DNA 1: AGAAGGTATTTATACCAAAACCATGGTTTACATATAAATACCTTCT DNA 2: AGAAGGTATTTATATGTAAACCATGGTTTTGGTATAAATACCTTCT | – | – | 3 score |
